According to patent publication US6368863, “Reagents and methods for modulating gene expression through RNA mimicry” (ISIS Pharmaceuticals Inc.):

What was measured:
Conditions in all cases: protein: synthetic; tags: synthetic 39-mer peptide made by solid phase synthesis, UCSF Biotechnology Resource Core; label: 5'-32P; hairpin with bulge
[1] = target: T1, Tat39 (Tat3B; HIV Tat residues 48-86) (HIV-1, UniProt P04608 P04608:48-86); assay: EMSA; 1:1 Kd; 2-3:1 Kd 200 nM; 10 mM Tris pH 7.5, 70 mM NaCl, 4 C
T1 chain: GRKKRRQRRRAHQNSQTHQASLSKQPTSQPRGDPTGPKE

[2] = target: T1, Tat39 (Tat3B; HIV Tat residues 48-86); assay: EMSA; 1:1 Kd; Krel 1
[3] = target: T1, Tat39 (Tat3B; HIV Tat residues 48-86); assay: EMSA; 1:1 Kd; 2-3:1 Kd 30 nM; Krel 4
[4] = target: T1, Tat39 (Tat3B; HIV Tat residues 48-86); assay: EMSA; 50 pM oligo; 1:1 Kd; 2-3:1 Kd 8000-20000 nM; Krel 10
[5] = target: T1, Tat39 (Tat3B; HIV Tat residues 48-86); assay: EMSA; 5 pM oligo; 1:1 Kd; Krel 4

B1: TAR 59-mer (1-59) (ssRNA)
RNA: GGGUCUCUCUGGUUAGACCAGAUCUGAGCCUGGGAGCUCUCUGGCUAACUAGGGAACCC
Kd [1]: 40 nM

B2: 5-BrU TAR 59-mer (1-59) (ssRNA)
RNA: GGGUCUCUCUGGUUAGACCAGAUCUGAGCCUGGGAGCUCUCUGGCUAACUAGGGAACCC
modifications: 5-bromouridine in place of U
Kd [2]: 40 nM

B3: A:P=S TAR 59-mer (1-59) (ssRNA)
RNA: GGGUCUCUCUGGUUAGACCAGAUCUGAGCCUGGGAGCUCUCUGGCUAACUAGGGAACCC
modifications: PS linkages at A residues
Kd [3]: < 10 nM

GCCAGAUCUGAGCCUGGGAGCUCUCUGGC (XNA, 2'-OMe, PS) [2'-OMe, P=S delta-TAR #2195 29-mer (16-45(-A17))]
Kd [4]: 4 nM | Kd [5]: < 10 nM
